The record followed here is the Human Domainome abundance scans (Beltran et al. 2025).

± gives the uncertainty stated by the source.

B1: Membrane-associated guanylate kinase, WW and PDZ domain-containing protein 2, residues 601 to 682; numbered along this chain, Q86UL8 (parent)
chain: AELMTLTIVKGAQGFGFTIADSPTGQRVKQILDIQGCPGLCEGDLIVEINQQNVQNLSHTEVVDILKDCPIGSETSLIIHRG

The variants in this data set derive from B1. Nature of the data set: abundance fitness (aPCA) (normalised: wild type 0, dead -1); higher = more abundant; growth selection in yeast, the domain comes from the species named. To be noted: Homo sapiens.
R81D: the abundance fitness was -0.538 ± 0.41.

As to R81A, the abundance fitness was -0.098 ± 0.079.

In the case of R81W, the abundance fitness is -0.52 ± 0.12.

For R81T, the abundance fitness is -0.174 ± 0.12.

In the case of R81Q, the abundance fitness was -0.051 ± 0.16.

R81K: the abundance fitness was -0.21 ± 0.17.

In the case of R81E, the abundance fitness is -0.419 ± 0.1.

In the case of S73Y, the abundance fitness was -0.178 ± 0.19.

Consider S73K, for which the abundance fitness was -0.044 ± 0.092.

S73P: the abundance fitness is -0.048 ± 0.1.

On to S73G, for which the abundance fitness was 0.095 ± 0.081.

As for S73R, the abundance fitness is -0.132 ± 0.089.

Turning to S73I, the abundance fitness was -0.011 ± 0.18.

On to S73M, for which the abundance fitness was -0.004 ± 0.14.

On to S73H, for which the abundance fitness amounted to 0.024 ± 0.15.

For S73F, the abundance fitness came to 0.029 ± 0.19.

With S73W, the abundance fitness was -0.06 ± 0.091.

Take S73N: the abundance fitness is -0.359 ± 0.33.

In the case of S73Q, the abundance fitness is -0.098 ± 0.11.

S73T: the abundance fitness was -0.095 ± 0.12.

Consider S73A, for which the abundance fitness was 0.021 ± 0.065.

Regarding S73V, the abundance fitness was -0.025 ± 0.067.

Turning to S73L, the abundance fitness was -0.102 ± 0.14.

For L77K, the abundance fitness is -0.892 ± 0.31.

On to L77E, for which the abundance fitness is -1.12 ± 0.38.

As for L77A, the abundance fitness was -0.124 ± 0.07.

On to L77D, for which the abundance fitness is -1.28 ± 0.48.

Regarding L77R, the abundance fitness was -1.17 ± 0.28.

With L77S, the abundance fitness is -0.583 ± 0.15.

For L77M, the abundance fitness turned out to be 0.008 ± 0.12.

For L77G, the abundance fitness was -1.02 ± 0.15.

For L77W, the abundance fitness was -0.072 ± 0.075.

Take L77I: the abundance fitness amounted to 0.24 ± 0.29.

Take L77P: the abundance fitness is -0.86 ± 0.24.

For L77V, the abundance fitness was -0.03 ± 0.062.

As to L77T, the abundance fitness was -0.132 ± 0.12.

On to L77F, for which the abundance fitness was -0.05 ± 0.38.

S76Y: the abundance fitness stood at 0.09 ± 0.21.

As for S76V, the abundance fitness was -0.031 ± 0.063.

Turning to S76C, the abundance fitness turned out to be 0.016 ± 0.12.

As to S76P, the abundance fitness was -0.046 ± 0.072.

In the case of S76W, the abundance fitness is -0.123 ± 0.076.

Regarding S76N, the abundance fitness was -0.003 ± 0.2.

As for S76T, the abundance fitness is -0.053 ± 0.087.

As to S76E, the abundance fitness is -0.044 ± 0.14.

For S76D, the abundance fitness is -0.124 ± 0.098.

On to S76A, for which the abundance fitness was -0.018 ± 0.074.

For the variant S76Q, the abundance fitness came to 0 ± 0.1.

For S76H, the abundance fitness was -0.668 ± 0.29.

Consider S76R, for which the abundance fitness is -0.021 ± 0.054.

Regarding S76L, the abundance fitness was -0.061 ± 0.077.

As to S76I, the abundance fitness is -0.118 ± 0.14.

Turning to S76M, the abundance fitness was -0.003 ± 0.11.

With G82T, the abundance fitness is -0.023 ± 0.22.

On to G82V, for which the abundance fitness is -0.188 ± 0.16.

G82R: the abundance fitness was -0.016 ± 0.082.

Take G82D: the abundance fitness amounted to 0.009 ± 0.11.

Consider G82H, for which the abundance fitness was -0.303 ± 0.27.

As for G82A, the abundance fitness was -0.051 ± 0.11.

On to G82S, for which the abundance fitness is -0.09 ± 0.076.

Turning to G82W, the abundance fitness was -0.184 ± 0.15.

On to G82P, for which the abundance fitness was -0.058 ± 0.12.

In the case of G82K, the abundance fitness is -0.16 ± 0.15.

In the case of G82F, the abundance fitness was -0.25 ± 0.17.

In the case of G82Q, the abundance fitness was 0.092 ± 0.37.

G82C: the abundance fitness is -0.117 ± 0.16.

As to G82L, the abundance fitness is -0.148 ± 0.17.

Consider H80N, for which the abundance fitness turned out to be 0.124 ± 0.19.

Turning to H80E, the abundance fitness came to 0.019 ± 0.11.

For the variant H80T, the abundance fitness amounted to 0.028 ± 0.079.

On to H80A, for which the abundance fitness is -0.049 ± 0.077.

H80V: the abundance fitness was -0.231 ± 0.098.

In the case of H80C, the abundance fitness is -0.121 ± 0.11.

Turning to H80M, the abundance fitness is -0.23 ± 0.27.

On to H80S, for which the abundance fitness was found to be 0.014 ± 0.075.

For the variant H80D, the abundance fitness came to 0.043 ± 0.14.

For H80P, the abundance fitness is -0.395 ± 0.14.

Take H80F: the abundance fitness is -0.128 ± 0.19.

As to H80R, the abundance fitness was determined as 0.027 ± 0.063.

For H80G, the abundance fitness was -0.006 ± 0.076.

As for H80L, the abundance fitness was -0.135 ± 0.079.

Consider H80W, for which the abundance fitness was -0.079 ± 0.16.

I78F: the abundance fitness is -0.035 ± 0.27.

Turning to I78H, the abundance fitness was -0.157 ± 0.2.

Take I78P: the abundance fitness is -1.13 ± 0.49.

For the variant I78E, the abundance fitness is -0.086 ± 0.17.

For I78L, the abundance fitness was -0.053 ± 0.097.

I78G: the abundance fitness is -0.075 ± 0.068.

As for I78K, the abundance fitness is -0.122 ± 0.1.

For I78T, the abundance fitness was -0.224 ± 0.15.

Regarding I78R, the abundance fitness was determined as 0.033 ± 0.071.

As to I78S, the abundance fitness was found to be 0.019 ± 0.098.

For I78A, the abundance fitness is -0.179 ± 0.12.

Take I78W: the abundance fitness was -0.129 ± 0.089.

Turning to I78Q, the abundance fitness was -0.23 ± 0.14.

For I78N, the abundance fitness is -0.011 ± 0.2.

As to I78M, the abundance fitness is 0.144 ± 0.14.
